Assay results: publication PMC12669754

Biological target: murine DNGR-1 (CLEC9A) expressed in B3Z NFAT reporter cells with SYK (mouse) (UniProt Q8BRU4)
Sequence of UniProt Q8BRU4 (Q8BRU4 whole entry): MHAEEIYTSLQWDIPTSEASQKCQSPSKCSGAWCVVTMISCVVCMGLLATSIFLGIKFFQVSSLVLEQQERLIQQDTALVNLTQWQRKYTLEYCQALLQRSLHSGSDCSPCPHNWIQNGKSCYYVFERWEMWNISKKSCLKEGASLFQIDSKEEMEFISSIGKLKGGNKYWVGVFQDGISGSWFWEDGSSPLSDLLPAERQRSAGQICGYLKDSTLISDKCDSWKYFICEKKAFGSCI

β-galactosidase (NFAT-LacZ) reporter activity of B3Z cells expressing DNGR-1 and SYK, stimulated with DNGR-1L, dose-dependent; EC50: 5 nM
Substance: DNGR-1 ligand (DNGR-1L), F-actin-myosin II complexes (from UniProt P68135 1-377)
